Substrate in data set [1]: NC(=O)C1=CN([C@@H]2O[C@H](COP(=O)(O)OP(=O)(O)OC[C@H]3O[C@@H](n4cnc5c(N)ncnc54)[C@H](O)[C@@H]3O)[C@@H](O)[C@H]2O)C=CC1
The experiment in a line: HPLC of AMP formation, initial rates, Michaelis-Menten fit. The format is biochemical, Tuber melanosporum. As to conditions: 50 mM Tris-HCl pH 8.0, 37 °C, 0.5 mM MnCl2. From the text: (§1) HPLC of AMP formation, initial rates, Michaelis-Menten fit on […]

Substrate in data set [2]: NC(=O)c1ccc[n+]([C@@H]2O[C@H](COP(=O)(O)OP(=O)(O)OC[C@H]3O[C@@H](n4cnc5c(N)ncnc54)[C@H](O)[C@@H]3O)[C@@H](O)[C@H]2O)c1
The description is as above. It counts as biochemical, Tuber melanosporum. Conditions: 50 mM Tris-HCl pH 8.0, 37 °C, 0.5 mM MnCl2.
Description: as §1

B1: TmNADD (Tuber melanosporum Mel28) (protein)
chain: MTQPYTATTESHKTSMLSRKFGQEIINYFSGSPLNRVSFLRSSTAFLRAALPRSKFLLMRDLEPLAASKTTLAWVGYETVRELVGNPFDTEEEEFLRGYDSRVEIPTLVFLGMNEEGTGGGGGGESFEFEGEGGKYVGGPCFALDVTEKGSLKEECEKVQEEAVKGAEGREFRKVRLDLSLVPSDAAILAQARSLLDWNNRNQFCSACGARTVSVHAGTKRICPPSDKAFQKDPEGPPFERPPCISRKGIHNIAFPRTDPTVIMAIINSTGDKVLLGRQRRWPKDFYSTLAGFCEPAESVEDAVRRETWEESGVRVGRVVIHSTQPWPYPANLMMGAIGEALPGGEEIVLKHDPELEDAQWVEVGRVRNALQESTGTPDVEVEGAIEGQLRLPPSTAIAHQLLLAVVNGFHLAKL
Consider B1, for which, in data set [1], the Km (as a rule, the concentration of substrate that gives half-maximal velocity) was found to be 120 ± 10 µM; the turnover number (kcat) – broadly, the number of substrate molecules converted per active site and unit of time at saturation – is 10.7 ± 1.8 s⁻¹; the specificity constant (kcat/Km) (usually the turnover number divided by the Michaelis constant) worked out at 89200 ± 19800 M⁻¹ s⁻¹. In addition, in data set [2], the Km amounted to 310 ± 50 µM, the kcat came to 2.9 ± 0.2 s⁻¹ and the catalytic efficiency (kcat/Km) was 9300 ± 1600 M⁻¹ s⁻¹.
